Experimental data taken from US20050154192A1 (published 2005).

T1: IL13 receptor α1 on TF-1 cells (human, UniProt P78552 22-427)
T1 sequence (looked up): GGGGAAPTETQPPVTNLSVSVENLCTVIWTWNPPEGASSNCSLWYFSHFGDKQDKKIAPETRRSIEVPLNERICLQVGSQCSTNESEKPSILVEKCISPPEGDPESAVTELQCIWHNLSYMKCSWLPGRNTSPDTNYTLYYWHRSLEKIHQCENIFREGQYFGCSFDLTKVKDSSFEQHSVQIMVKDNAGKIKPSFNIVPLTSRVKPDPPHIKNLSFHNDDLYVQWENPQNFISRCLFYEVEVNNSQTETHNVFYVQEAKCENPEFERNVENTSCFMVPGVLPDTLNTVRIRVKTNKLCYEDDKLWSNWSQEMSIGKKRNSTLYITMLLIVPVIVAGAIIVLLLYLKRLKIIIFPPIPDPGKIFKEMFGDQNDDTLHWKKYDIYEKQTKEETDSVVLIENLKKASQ

T2: human IL13 Rα1-Fc (fusion of the extracellular domain of human IL13 receptor α1 and an Fc fragment of human … (human, UniProt P78552 22-343))
T2 construct: extracellular domain; also called soluble IL13 receptor α1-Fc; not shown: human IgG1 Fc domain (cDNA from plasmid pM1304, WO97/42319), joined in frame over a HindIII site
T2 sequence (looked up): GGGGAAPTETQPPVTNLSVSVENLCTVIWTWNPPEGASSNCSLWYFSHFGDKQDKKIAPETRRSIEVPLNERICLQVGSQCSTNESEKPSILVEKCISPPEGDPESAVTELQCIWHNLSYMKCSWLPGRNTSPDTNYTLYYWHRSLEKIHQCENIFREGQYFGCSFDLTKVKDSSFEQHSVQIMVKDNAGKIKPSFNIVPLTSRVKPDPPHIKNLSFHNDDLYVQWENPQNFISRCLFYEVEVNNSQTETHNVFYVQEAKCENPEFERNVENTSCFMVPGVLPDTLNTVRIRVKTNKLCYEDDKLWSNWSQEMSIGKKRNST


Assays:
[1] = molecular target: Recombinant Mouse IL-13 Rα1/Fc Chimera (R&D) (mouse) (UniProt O09030); test: SPR (BIACORE), same format; rat IgG control, by definition the 0% reference
[2] = molecular target: Recombinant Human IL-13 Rα1/Fc Chimera (R&D) (human) (UniProt P78552); test: as above
[3] = molecular target: T1, IL13 receptor α1 on TF-1 cells; test: cell-based or functional assay
[4] = molecular target: T2, human IL13 Rα1-Fc (fusion of the …); test: SPR (BIACORE), human IL13 Rα1-Fc immobilized on CM5 chip, antibody at 2, 10 and 50 µg/ml
Experimental: The association constant of the anti-IL13 Rα1 antibody prepared was determined using BIACORE. That is, a CM5 chip (Biacore CO., Ltd.) was activated for 7 minutes according to the manual of Biacore Co., Ltd. and then 100 μg/ml of the human IL13 Rα1-Fc prepared in Example 1 was immobilized thereon. An HBS-EP buffer solution (Biacore Co., Ltd) was flown at a flow rate of 20 μl/min, and then the association constants of four kinds of the antibodies diluted to 2, 10, and 50 μg/ml with the same buffer solution were obtained. The binding antibody was dissociated with a 0.1-M glycine hydrochloric acid buffer solution (pH 3.0) and the chip was then used again. The resulting data was analyzed using analyzing software, BIA evaluation, Biacore Co., Ltd., and the dissociation constant (Kd) thereof was calculated.

Chain of Recombinant Mouse IL-13 Rα1/Fc Chimera (R&D) (mouse) (O09030 26-340 limits assumed, change not shown): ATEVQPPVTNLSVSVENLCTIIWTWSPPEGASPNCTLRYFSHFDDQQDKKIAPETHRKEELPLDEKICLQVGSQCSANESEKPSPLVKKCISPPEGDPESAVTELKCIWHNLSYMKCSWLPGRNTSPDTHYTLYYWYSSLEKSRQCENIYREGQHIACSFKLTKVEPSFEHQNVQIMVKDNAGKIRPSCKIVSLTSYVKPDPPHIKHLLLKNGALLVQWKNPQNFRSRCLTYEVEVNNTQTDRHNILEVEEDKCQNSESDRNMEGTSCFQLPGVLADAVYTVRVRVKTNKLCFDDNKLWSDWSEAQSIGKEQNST

Row | Molecule | Mouse IL13/IL13 R binding inhibition rate (%) [1] | Human IL13/IL13 R binding inhibition rate (%) [2] | IC50 (µg/mL) for cell response with IL 4 (1 ng/mL); TF-1 proliferation [3] | IC50 (µg/mL) for cell response with IL 13 (1 ng/mL); TF-1 proliferation [3] | Kd [4]
1 | rat IgG (control antibody) | 0% | 0% | – | – | –
2 | F997-13-1 antibody (antibody, IgG1, V domains shown) VH: EVKLQQSGGGLVQPGRSMKLSCAASGFTFSNYGMAWVRQAPKKGLEWVAYISYDGGSTYYRDSVKGRFTISRDNAKSTLYLQMDSLRSEDTATYHCTTPHYGYKYWYFDFWGQGTTVTVSS VL: DIQMTQSPASLSASLGETVTIECRASEDIYNGLAWYQQKPGKSPQLLIYHANSSHTGVPSRFSGSGSGTQYSLKIDSLQSEDVANYFCQQYYDYPTFGAGTKLELKR | – | – | > 10 µg/mL | 6.6 µg/mL | 4.1 nM
3 | F997-20-1 antibody (antibody, IgG1, V domains shown) VH: EVQLQQSGGGLVQPGRSLNLSCAASGFTFNDYYMAWVRQAPKKGLEWVATIIYDGTRTYYRDSVKGRFTISRDNAKSTLYLQMDSLRSEDTATYYCATPWGSWGQGTTVTVSS VL: DIQMTQSPSSMPASLGERVTISCRASQGISNFLNWYQQKADGTIKPLIYYTSNLQSAVPSRFSGSGSGTDYSLTISSLEPEDFAMYYCQQYDSSPWTFGGGTKLEITR | – | – | > 10 µg/mL | 1.2 µg/mL | 1.07 nM
